B1: BBSome complex member BBS1 (Homo sapiens), Q8NFJ9 (parent)
chain: MAAASSSDSDACGAESNEANSKWLDAHYDPMANIHTFSACLALADLHGDGEYKLVVGDLGPGGQQPRLKVLKGPLVMTESPLPALPAAAATFLMEQHEPRTPALALASGPCVYVYKNLRPYFKFSLPQLPPNPLEQDLWNQAKEDRIDPLTLKEMLESIRETAEEPLSIQSLRFLQLELSEMEAFVNQHKSNSIKRQTVITTMTTLKKNLADEDAVSCLVLGTENKELLVLDPEAFTILAKMSLPSVPVFLEVSGQFDVEFRLAAACRNGNIYILRRDSKHPKYCIELSAQPVGLIRVHKVLVVGSTQDSLHGFTHKGKKLWTVQMPAAILTMNLLEQHSRGLQAVMAGLANGEVRIYRDKALLNVIHTPDAVTSLCFGRYGREDNTLIMTTRGGGLIIKILKRTAVFVEGGSEVGPPPAQAMKLNVPRKTRLYVDQTLREREAGTAMHRAFQTDLYLLRLRAARAYLQALESSLSPLSTTAREPLKLHAVVQGLGPTFKLTLHLQNTSTTRPVLGLLVCFLYNEALYSLPRAFFKVPLLVPGLNYPLETFVESLSNKGISDIIKVLVLREGQSAPLLSAHVNMPGSEGLAAA
partner: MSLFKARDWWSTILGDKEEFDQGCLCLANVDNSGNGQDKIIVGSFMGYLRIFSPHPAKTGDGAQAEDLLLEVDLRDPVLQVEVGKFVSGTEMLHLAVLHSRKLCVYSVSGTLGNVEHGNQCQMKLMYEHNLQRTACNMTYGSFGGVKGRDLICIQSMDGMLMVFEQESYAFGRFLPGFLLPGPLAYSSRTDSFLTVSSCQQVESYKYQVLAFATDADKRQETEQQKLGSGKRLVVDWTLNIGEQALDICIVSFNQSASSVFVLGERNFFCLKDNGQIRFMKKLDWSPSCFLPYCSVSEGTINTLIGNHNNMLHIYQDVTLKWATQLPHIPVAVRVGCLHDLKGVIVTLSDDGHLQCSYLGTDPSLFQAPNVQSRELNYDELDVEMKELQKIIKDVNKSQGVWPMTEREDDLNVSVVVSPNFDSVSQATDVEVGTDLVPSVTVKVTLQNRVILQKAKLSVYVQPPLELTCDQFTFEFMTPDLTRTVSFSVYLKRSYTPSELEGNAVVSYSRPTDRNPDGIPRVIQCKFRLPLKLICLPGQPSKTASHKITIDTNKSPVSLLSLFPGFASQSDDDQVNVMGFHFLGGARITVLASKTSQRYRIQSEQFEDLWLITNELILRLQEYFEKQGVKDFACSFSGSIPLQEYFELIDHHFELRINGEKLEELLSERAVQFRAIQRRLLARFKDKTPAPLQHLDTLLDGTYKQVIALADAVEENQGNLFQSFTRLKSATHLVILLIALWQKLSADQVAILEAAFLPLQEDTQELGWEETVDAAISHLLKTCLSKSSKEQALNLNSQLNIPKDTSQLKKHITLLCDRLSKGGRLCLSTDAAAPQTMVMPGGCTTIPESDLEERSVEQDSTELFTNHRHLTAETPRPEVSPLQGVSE

Variants of: B1
Settings: with pthb1_human BBS9, Q3SYG4

effect of a mutation on the interaction	Variant
with no effect	T510K
with no effect	T510A
with no effect	T510E
with no effect	V514E
with no effect	V514K
with no effect	V514A
with no effect	P513A
with no effect	P513E
with no effect	P513K
with no effect	L518E
disrupting interaction strength	L518P
with no effect	L518K
with no effect	L518A
disrupting interaction strength	F521K
with no effect	F521A
disrupting interaction strength	F521E
with no effect	V519A
disrupting interaction strength	V519E
disrupting interaction strength	V519K
with no effect	L515A
with no effect	L515K

effect of a mutation on the interaction	Variant
with no effect	L515E
disrupting interaction strength	L530A
disrupting interaction strength	L530D
with no effect	S509A
disrupting interaction strength	S509L
with no effect	S509E
with no effect	S509K
with no effect	A526E
with no effect	A526K
with no effect	H504E
with no effect	H504K
with no effect	E525K
with no effect	E525A
disrupting interaction strength	N507E
with no effect	N507K
with no effect	N507A
disrupting interaction strength	L517E
with no effect	L517A
disrupting interaction strength	L517K
with no effect	L522E
with no effect	L522A

effect of a mutation on the interaction	Variant
with no effect	L522K
with no effect	S529K
with no effect	S529E
with no effect	S529A
with no effect	T511K
with no effect	T511A
with no effect	T511E
with no effect	L527A
with no effect	L527K
disrupting interaction strength	L527P
with no effect	L527E
disrupting interaction strength	L505P
disrupting interaction strength	L505E
disrupting interaction strength	L505K
with no effect	L505A
disrupting interaction strength	Y523A
with no effect	Y523K
disrupting interaction strength	Y523E
disrupting interaction strength	Y528E
disrupting interaction strength	Y528C
disrupting interaction strength	Y528K

effect of a mutation on the interaction	Variant
disrupting interaction strength	Y528A
with no effect	G516E
disrupting interaction strength	G516A
with no effect	G516K
with no effect	Q506K
with no effect	Q506A
with no effect	Q506E
with no effect	T508E
with no effect	T508A
with no effect	T508K
with no effect	R512K
with no effect	R512A
with no effect	R512E
disrupting interaction strength	N524A
with no effect	N524K
with no effect	N524E
with no effect	C520K
with no effect	C520A
with no effect	C520E

Variants of: B1
Settings: with pthb1_human BBS9, Q3SYG4
Remark: another data set of the same source

effect of a mutation on the interaction	Variant
with no effect	N507E
